# Source: the supplement of paper PMC9112550, “Optimization of the antimicrobial peptide Bac7 by deep mutational scanning” (BMC Biology, 2022)
# Tested on: Escherichia coli TOP10
# Test: shrunken log2 fold change of peptide-encoding DNA abundance (4.5 h post-induction vs induction); higher = less antimicrobial activity (less host growth inhibition)
# Conditions: time post-induction: 4.5 h; library: site-saturation at positions 5, 18, 19, 20
# 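Also: peptides expressed intracellularly from a pBAD plasmid library in pooled LB shake-flask culture, induced with 0.3% L-arabinose, DNA abundance read by NGS, three biological replicates, DESeq2 with apeglm shrinkage.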
row,Sequence,shrunken log2 fold change
1,RRIRKRPPRLPRPRPRPQSWPRP,0.451
2,RRIRCRPPRLPRPRPRPKCSPRP,0.0495
3,RRIRIRPPRLPRPRPRPYFHPRP,-0.835
4,RRIRRRPPRLPRPRPRPYKMPRP,0.187
5,RRIRGRPPRLPRPRPRPFILPRP,-0.196
6,RRIRLRPPRLPRPRPRPLFYPRP,-0.238
7,RRIRMRPPRLPRPRPRPFEIPRP,0.0739
8,RRIRFRPPRLPRPRPRPRPQPRP,0.684
9,RRIRARPPRLPRPRPRPHTLPRP,-0.213
10,RRIRNRPPRLPRPRPRPQWFPRP,-0.0391
11,RRIRTRPPRLPRPRPRPNNRPRP,-0.754
12,RRIRERPPRLPRPRPRPAGGPRP,0.2
13,RRIRKRPPRLPRPRPRPRFKPRP,0.52
14,RRIRVRPPRLPRPRPRPFCFPRP,0.0496
15,RRIRDRPPRLPRPRPRPMFHPRP,-0.0543
16,RRIRIRPPRLPRPRPRPKYSPRP,-0.216
17,RRIRKRPPRLPRPRPRPCCDPRP,0.217
18,RRIRIRPPRLPRPRPRPRCTPRP,-0.141
19,RRIRHRPPRLPRPRPRPECRPRP,0.0764
20,RRIRIRPPRLPRPRPRPNAQPRP,-0.0106
21,RRIRPRPPRLPRPRPRPFQVPRP,-0.0122
22,RRIRQRPPRLPRPRPRPYGGPRP,-0.29
23,RRIRTRPPRLPRPRPRPALDPRP,0.196
24,RRIRQRPPRLPRPRPRPHGTPRP,-0.0865
25,RRIRYRPPRLPRPRPRPGDKPRP,-0.288

row,Sequence,shrunken log2 fold change
1,RRIRKRPPRLPRPRPRPRDEPRP,-0.0461
2,RRIRWRPPRLPRPRPRPWRPPRP,0.178
3,RRIRLRPPRLPRPRPRPVCSPRP,-0.14
4,RRIRIRPPRLPRPRPRPANQPRP,-0.693
5,RRIRYRPPRLPRPRPRPRDPPRP,0.271
6,RRIRYRPPRLPRPRPRPEHHPRP,-0.646
7,RRIRSRPPRLPRPRPRPWDCPRP,-0.00801
8,RRIRNRPPRLPRPRPRPEKHPRP,-0.287
9,RRIRVRPPRLPRPRPRPWTQPRP,-0.219
10,RRIRRRPPRLPRPRPRPALCPRP,0.334
11,RRIRMRPPRLPRPRPRPTMCPRP,0.674
12,RRIRARPPRLPRPRPRPSSWPRP,0.158
13,RRIRSRPPRLPRPRPRPTIAPRP,0.105
14,RRIRDRPPRLPRPRPRPSIRPRP,-0.103
15,RRIRKRPPRLPRPRPRPLKDPRP,-0.22
16,RRIRYRPPRLPRPRPRPGCPPRP,-0.085
17,RRIRLRPPRLPRPRPRPNTTPRP,-0.463
18,RRIRHRPPRLPRPRPRPSVCPRP,-0.294
19,RRIRWRPPRLPRPRPRPFHNPRP,-0.392
20,RRIRMRPPRLPRPRPRPEQLPRP,1.94
21,RRIRNRPPRLPRPRPRPSTYPRP,-0.318
22,RRIRERPPRLPRPRPRPCDAPRP,-0.171
23,RRIRSRPPRLPRPRPRPRHVPRP,-0.0732
24,RRIRARPPRLPRPRPRPENMPRP,0.242
25,RRIRNRPPRLPRPRPRPKPSPRP,0.137

row,Sequence,shrunken log2 fold change
1,RRIRERPPRLPRPRPRPQHAPRP,-0.107
2,RRIRCRPPRLPRPRPRPMISPRP,-0.235
3,RRIRPRPPRLPRPRPRPAINPRP,-0.142
4,RRIRVRPPRLPRPRPRPSNVPRP,-0.139
5,RRIRDRPPRLPRPRPRPLKEPRP,-0.277
6,RRIRKRPPRLPRPRPRPMFYPRP,-0.169
7,RRIRYRPPRLPRPRPRPWWVPRP,-0.0131
8,RRIRIRPPRLPRPRPRPNIAPRP,-0.407
9,RRIRGRPPRLPRPRPRPTKPPRP,0.0691
10,RRIRKRPPRLPRPRPRPACQPRP,0.0289
11,RRIRCRPPRLPRPRPRPIDMPRP,-0.175
12,RRIRWRPPRLPRPRPRPAAQPRP,-0.0638
13,RRIRLRPPRLPRPRPRPWRLPRP,0.0799
14,RRIRKRPPRLPRPRPRPWTAPRP,0.00666
15,RRIRERPPRLPRPRPRPNKIPRP,-0.642
16,RRIRQRPPRLPRPRPRPCVSPRP,-0.107
17,RRIRVRPPRLPRPRPRPDTNPRP,-0.479
18,RRIRCRPPRLPRPRPRPQFCPRP,-0.187
19,RRIRKRPPRLPRPRPRPCSNPRP,-0.0227
20,RRIRHRPPRLPRPRPRPRHAPRP,0.164
21,RRIRMRPPRLPRPRPRPKMHPRP,0.42
22,RRIRWRPPRLPRPRPRPIRTPRP,-0.228
23,RRIRNRPPRLPRPRPRPFNCPRP,-0.112
24,RRIRWRPPRLPRPRPRPCVNPRP,0.0912
25,RRIRQRPPRLPRPRPRPAGSPRP,0.0285

row,Sequence,shrunken log2 fold change
1,RRIRLRPPRLPRPRPRPGTFPRP,0.0118
2,RRIRVRPPRLPRPRPRPRANPRP,0.384
3,RRIRSRPPRLPRPRPRPTALPRP,0.14
4,RRIRFRPPRLPRPRPRPGMIPRP,-0.224
5,RRIRKRPPRLPRPRPRPMDHPRP,0.34
6,RRIRQRPPRLPRPRPRPHQRPRP,0.153
7,RRIRYRPPRLPRPRPRPMQAPRP,-0.0122
8,RRIRKRPPRLPRPRPRPARYPRP,0.513
9,RRIRCRPPRLPRPRPRPFPLPRP,-0.0156
10,RRIRYRPPRLPRPRPRPPACPRP,-0.146
11,RRIRDRPPRLPRPRPRPVCGPRP,0.979
12,RRIRYRPPRLPRPRPRPIMYPRP,-0.0119
13,RRIRPRPPRLPRPRPRPWLVPRP,0.159
14,RRIRNRPPRLPRPRPRPLCEPRP,-0.107
15,RRIRRRPPRLPRPRPRPWSVPRP,0.0267
16,RRIRCRPPRLPRPRPRPFWLPRP,-0.227
17,RRIRHRPPRLPRPRPRPGVAPRP,0.207
18,RRIRYRPPRLPRPRPRPCLYPRP,-0.783
19,RRIRIRPPRLPRPRPRPTHQPRP,0.0537
20,RRIRSRPPRLPRPRPRPLFPPRP,-0.00148
21,RRIRTRPPRLPRPRPRPIKKPRP,-0.0742
22,RRIRRRPPRLPRPRPRPMMRPRP,0.73
23,RRIRTRPPRLPRPRPRPIMVPRP,-0.198
24,RRIRVRPPRLPRPRPRPWWEPRP,0.161
25,RRIRPRPPRLPRPRPRPCKQPRP,-0.0806

row,Sequence,shrunken log2 fold change
1,RRIRWRPPRLPRPRPRPYGVPRP,0.00576
2,RRIRERPPRLPRPRPRPTCFPRP,-0.133
3,RRIRWRPPRLPRPRPRPKNKPRP,0.107
4,RRIRYRPPRLPRPRPRPIHMPRP,-0.0796
5,RRIRNRPPRLPRPRPRPAMRPRP,0.842
6,RRIRYRPPRLPRPRPRPWRMPRP,-0.369
7,RRIRPRPPRLPRPRPRPDHGPRP,-0.0198
8,RRIRWRPPRLPRPRPRPPVMPRP,0.00935
9,RRIRTRPPRLPRPRPRPWMLPRP,-0.0281
10,RRIRYRPPRLPRPRPRPWSKPRP,-0.0945
11,RRIRMRPPRLPRPRPRPCTEPRP,-0.0649
12,RRIRTRPPRLPRPRPRPDCLPRP,-0.0333
13,RRIRHRPPRLPRPRPRPWCEPRP,0.0456
14,RRIRSRPPRLPRPRPRPCYIPRP,-0.582
15,RRIRDRPPRLPRPRPRPHHHPRP,-0.505
16,RRIRCRPPRLPRPRPRPDYNPRP,-0.571
17,RRIRGRPPRLPRPRPRPEDDPRP,2.81
18,RRIRIRPPRLPRPRPRPKYWPRP,-0.678
19,RRIRFRPPRLPRPRPRPWMHPRP,-0.0282
20,RRIRLRPPRLPRPRPRPHGEPRP,0.191
21,RRIRLRPPRLPRPRPRPCVVPRP,-0.457
22,RRIRQRPPRLPRPRPRPPFFPRP,0.249
23,RRIRDRPPRLPRPRPRPLGMPRP,0.111
24,RRIRNRPPRLPRPRPRPNRNPRP,-0.91
25,RRIRFRPPRLPRPRPRPPSVPRP,0.08
